Drawing on doi:10.1101/2025.06.24.660003, this text covers fold decrease in total binding against wild type for 1 substance.

The target in this assay is human plasma glycoproteins. The experiment in a line: far-Western, overlay or dot blot; human or rat plasma diluted 1:10, boiled with LDS sample buffer and 50 mM DTT, separated on 3-8% polyacrylamide gradient gels, transferred to BioTraceNT; GST-SLBR 5 nM in DPBS with 1x Blocking Reagent, 90 min, room temperature; detected with anti-GST.

As for “GST-tagged Siglec-like binding region of Hsa, V370F mutant (from UniProt A8AWU7 220-453) (domain or fragment)”, the fold decrease in total binding against wild type stood at 3 fold.
